The record followed here is PMC4431388, “Effect of the distal histidine on the peroxidatic activity of monomeric cytoglobin” (F1000Research, 2015).

The term stoichiometry N denotes a count of units in the complex or per binding partner.

Residue numbers refer to the chain shown, from its start. Names may count otherwise.

The series concerns the molecule itself. The series can be described thus: SEC; G75 Superdex column equilibrated with 0.1 M sodium phosphate buffer pH 7.4; absorbance at 280 nm; monomer to dimer of the recombinant protein as purified. For orientation: In gel filtration, larger molecules generally elute earlier.

B1: human cytoglobin, wildtype (natural protein, UniProt Q8WWM9 1-190, looked up)
chain: MEKVPGEMEIERRERSEELSEAERKAVQAMWARLYANCEDVGVAILVRFFVNFPSAKQYFSQFKHMEDPLEMERSPQLRKHACRVMGALNTVVENLHDPDKVSSVLALVGKAHALKHKVEPVYFKILSGVILEVVAEEFASDFPPETQRAWAKLRGLIYSHVTAAYKEVGWVQQVPNATTPPATLPSSGP
notes: cytoglobin, human; gene bought from OriGene and transferred into pET28a; monomer runs at 21 kDa; Haem protein; The preparation holds monomer, dimer and a minor polymerised fraction; also called Cygb; WT Cygb
B1: the “stoichiometry N” value turned out to be 2.

B2: human cytoglobin H81Y (natural protein, UniProt Q8WWM9 1-190, looked up)
chain: B1 chain with H81Y
notes: cytoglobin, human, distal histidine mutant; Haem protein; also called H81Y Cygb; histidine 81 to tyrosine mutation
On to B2, for which the binding result was “binds”.

B3: human cytoglobin H81V (natural protein, UniProt Q8WWM9 1-190, looked up)
chain: B1 chain with H81V
notes: cytoglobin, human, distal histidine mutant; Haem protein; also called H81V Cygb; histidine 81(E7) to valine mutation
As for B3, the binding result is given as “binds”.
